Test results published in patent US20190111164A1 (Boehringer Ingelheim, published 2019).
Changes are numbered by the printed parent chain. * marks the point of attachment. αGalNAc = CC(=O)N[C@@H]1[C@@H](O)[C@@H](O)[C@@H](CO)O[C@@H]1*

T1: A-MUC2 (SMILES …)
T1 construct: also called Ac-PT*TTPLK-NH2
T1 peptide: Ac-PT(αGalNAc)TTPLK-NH2

T2: B-MUC2 (SMILES …)
T2 construct: also called Ac-PTT*TPLK-NH2
T2 peptide: Ac-PTT(αGalNAc)TPLK-NH2

T3: C-MUC2 (SMILES …)
T3 construct: also called Ac-PTTT*PLK-NH2
T3 peptide: Ac-PTTT(αGalNAc)PLK-NH2

T4: D-MUC2 (SMILES …)
T4 construct: also called Ac-PT*T*TPLK-NH2
T4 peptide: Ac-PT(αGalNAc)T(αGalNAc)TPLK-NH2

T5: E-MUC2 (SMILES …)
T5 construct: also called Ac-PT*TT*PLK-NH2
T5 peptide: Ac-PT(αGalNAc)TT(αGalNAc)PLK-NH2

T6: F-MUC2 (SMILES …)
T6 construct: also called Ac-PTT*T*PLK-NH2
T6 peptide: Ac-PTT(αGalNAc)T(αGalNAc)PLK-NH2

T7: G-MUC2 (SMILES …)
T7 construct: also called Ac-PT*T*T*PLK-NH2
T7 peptide: Ac-PT(αGalNAc)T(αGalNAc)T(αGalNAc)PLK-NH2

T8: a-Dystroglycan peptide (no Tn)
T8 construct: Unmodified control of the a-Dystroglycan glycopeptide
T8 peptide: Ac-PPTTTTKKP-NH2

T9: MUC5AC (SMILES …)
T9 peptide: H-GTTPSPVPT(αGalNAc)TSTTSAP-OH

T10: EA2 (SMILES …)
T10 construct: also called Ac-PTTDSTT*PAPTTK-NH2
T10 peptide: Ac-PTTDSTT(αGalNAc)PAPTTK-NH2

T11: EA2-R
T11 peptide: Ac-PTTDSTTPAPTTK-NH2

T12: a-Dystroglycan glycopeptide (four Tn) (SMILES …)
T12 construct: also called Ac-PPT*T*T*T*KKP-HN2
T12 peptide: Ac-PPT(αGalNAc)T(αGalNAc)T(αGalNAc)T(αGalNAc)KKP-NH2

T13: MUC1-1 (SMILES …)
T13 construct: also called H2N-TSAPDT*RDAP-NH2
T13 peptide: H-TSAPDT(αGalNAc)RDAP-NH2

T14: MUC1-1R
T14 peptide: H-TSAPDTRDAP-NH2

T15: MUC1-2 (SMILES …)
T15 construct: also called H2N-APGS*T*APP-NH2
T15 peptide: H-APGS(αGalNAc)T(αGalNAc)APP-NH2

T16: MUC1-2R
T16 peptide: H-APGSTAPP-NH2

T17: Peptide-4
T17 construct: also called H2N-KTTT-CONH2
T17 peptide: H-KTTT-NH2

T18: Peptide-5
T18 construct: also called H2N-KTTTG-CONH2
T18 peptide: H-KTTTG-NH2

T19: IgA-Pep02
T19 peptide: H-KPVPSTPPTPSC-OH

T20: IgA-Pep03 (SMILES …)
T20 construct: also called H2N-KPVPS*TPPTPSC-OH
T20 peptide: H-KPVPS(αGalNAc)TPPTPSC-OH

T21: IgA-Pep07
T21 peptide: H-KTPPTPSPSTPC-OH

T22: IgA-Pep08 (SMILES …)
T22 peptide: H-KTPPTPSPST(αGalNAc)PC-OH

T23: IgA-Pep10
T23 peptide: H-KPSPSTPPTPSC-OH

T24: IgA-Pep13 (SMILES …)
T24 construct: also called H2N-KPS*TPPT*PSPSC-OH
T24 peptide: H-KPS(αGalNAc)TPPT(αGalNAc)PSPSC-OH

T25: IgA-Pep16 (SMILES …)
T25 peptide: H-KPSTPPTPS(αGalNAc)PSC-OH

T26: IgA-Pep18 (SMILES …)
T26 peptide: H-KPST(αGalNAc)PPTPSPSC-OH

T27: IgA-Pep05
T27 construct: also called IgA-Pep12; IgA-Pep14
T27 peptide: H-KPSTPPTPSPSC-OH

B1: 2F3 parent antibody (antibody, V domains shown)
VH: QITLRESGGGLVQPGGSLRLSCAASGFTFDSYAMSWVRQAPGKGLEWVSAISGSGDSTYYADSVKGRFSISRDNSKNTLYLQMNSLRAEDTAVYYCAIRREYSGYAPFDYWGQGTLVTVSS
VL: DIVMTQTPSSLSASVGDRVTITCRASQGISSWLAWYQQKPEKAPRSLIYAASSLQSGVPSRFSGSGSGTDFTLTISSLQPEDFATYYCQQYISYPYTFGQGTKLEIK
notes: Only variable domains are used here; V genes were cloned into human IgG1 (or IgG3)/kappa; also called 2F3 Original; original 2F3 parent
B2: 2F3 variant #6 (antibody, IgG1, V domains shown)
VH: B1 VH with I2V, T3Q, R5L, D56A, T118I
VL: B1 VL
notes: Mutant heavy chain in an IgG expression vector, co-expressed with the wild type 2F3 light chain (IgG1, kappa); also called 2F3#6; clone 6
B3: 2F3 variant #17v2 (antibody, IgG1, V domains shown)
VH: B1 VH with D56H, S85N
VL: B1 VL
notes: IgG1, kappa, wild type 2F3 light chain; also called 2F3#17V2; 2F3#17v2

Tests used:
A-MUC2 = target: T1, A-MUC2; assay: glycopeptide microarray, antibody at 50 ug/mL
Experimental: (§1) With concentrations adjusted to 100 μM in printing buffer (300 mM sodium phosphates, pH 8.5), 0.33 nL of each solution was spotted using a piezoelectric printer. The microarray was printed in spot replicates of 6. Arrays were interrogated with monoclonal anti-Tn antibodies 2F3 parent, 2F3V variant 6, or 2F3 variant 17-2 and detected with fluorescently labeled secondary antibodies and streptavidin as noted. Scanning and quantification were performed with ProScanArray scanner and ScanArray Express software (Perkin-Elmer). The assay examined a panel of ˜50 Tn glycopeptides and addressed whether spacing, number of Tn modifications, specific residues modified, or sequence context contributed to the specificity of binding by 2F3. […] Ser-Tn near free termini and multiple Ser-Tn in a single peptide increased binding. Using the 2F3 parent antibody (“parent”), Variant 6 and Variant 17, the binding of the antibodies to a panel of different glycoproteins was assayed to determine the preferred Tn context recognized by 2F3 and the 2F3G1 variants. […] Importantly, modification to Thr residues gave rise to little to no binding. […] Furthermore, binding was observed not only to peptides that contained Ser-Tn, but specifically those that were at least 5 amino acids from the attachment point to the solid matrix. Ser-Tn near free termini and multiple Ser-Tn in a single peptide increased binding.
(§2) The antibodies were applied to glycopeptide arrays at a concentration of 5 ug/mL (no data shown form this group) or 50 ug/mL (data shown in bar chart and in the table 9).

B-MUC2 = target: T2, B-MUC2; assay: glycopeptide microarray, antibody at 50 ug/mL
Experimental: as §1, §2

C-MUC2 = target: T3, C-MUC2; assay: glycopeptide microarray, antibody at 50 ug/mL
Experimental: as §1, §2

D-MUC2 = target: T4, D-MUC2; assay: glycopeptide microarray, antibody at 50 ug/mL
Experimental: as §1, §2

E-MUC2 = target: T5, E-MUC2; assay: glycopeptide microarray, antibody at 50 ug/mL
Experimental: as §1, §2

F-MUC2 = target: T6, F-MUC2; assay: glycopeptide microarray, antibody at 50 ug/mL
Experimental: as §1, §2

G-MUC2 = target: T7, G-MUC2; assay: glycopeptide microarray, antibody at 50 ug/mL
Experimental: as §1, §2

[1] = target: T8, a-Dystroglycan peptide (no Tn); assay: glycopeptide microarray, antibody at 50 ug/mL
Experimental: as §1, §2

MUC5AC = target: T9, MUC5AC; assay: glycopeptide microarray, antibody at 50 ug/mL
Experimental: as §1, §2

EA2 = target: T10, EA2; assay: glycopeptide microarray, antibody at 50 ug/mL
Experimental: as §1, §2

EA2-R = target: T11, EA2-R; assay: glycopeptide microarray, antibody at 50 ug/mL
Experimental: as §1, §2

[2] = target: T12, a-Dystroglycan glycopeptide (four Tn); assay: glycopeptide microarray, antibody at 50 ug/mL
Experimental: as §1, §2

MUC1-1 = target: T13, MUC1-1; assay: glycopeptide microarray, antibody at 50 ug/mL
Experimental: as §1, §2

MUC1-1R = target: T14, MUC1-1R; assay: glycopeptide microarray, antibody at 50 ug/mL
Experimental: as §1, §2

MUC1-2 = target: T15, MUC1-2; assay: glycopeptide microarray, antibody at 50 ug/mL
Experimental: as §1, §2

MUC1-2R = target: T16, MUC1-2R; assay: glycopeptide microarray, antibody at 50 ug/mL
Experimental: as §1, §2

Peptide-4 = target: T17, Peptide-4; assay: glycopeptide microarray, antibody at 50 ug/mL
Experimental: as §1, §2

Peptide-5 = target: T18, Peptide-5; assay: glycopeptide microarray, antibody at 50 ug/mL
Experimental: as §1, §2

IgA-Pep02 = target: T19, IgA-Pep02; assay: glycopeptide microarray, antibody at 50 ug/mL
Experimental: as §1, §2

IgA-Pep03 = target: T20, IgA-Pep03; assay: glycopeptide microarray, antibody at 50 ug/mL
Experimental: as §1, §2

IgA-Pep07 = target: T21, IgA-Pep07; assay: glycopeptide microarray, antibody at 50 ug/mL
Experimental: as §1, §2

IgA-Pep08 = target: T22, IgA-Pep08; assay: glycopeptide microarray, antibody at 50 ug/mL
Experimental: as §1, §2

IgA-Pep10 = target: T23, IgA-Pep10; assay: glycopeptide microarray, antibody at 50 ug/mL
Experimental: as §1, §2

IgA-Pep13 = target: T24, IgA-Pep13; assay: glycopeptide microarray, antibody at 50 ug/mL
Experimental: as §1, §2

IgA-Pep16 = target: T25, IgA-Pep16; assay: glycopeptide microarray, antibody at 50 ug/mL
Experimental: as §1, §2

IgA-Pep18 = target: T26, IgA-Pep18; assay: glycopeptide microarray, antibody at 50 ug/mL
Experimental: as §1, §2

IgA-Pep05 [3] = target: T27, IgA-Pep05; assay: glycopeptide microarray, antibody at 50 ug/mL; spot IgA-Pep05
Experimental: as §1, §2

IgA-Pep05 [4] = target: T27, IgA-Pep05; assay: glycopeptide microarray, antibody at 50 ug/mL; spot IgA-Pep12
Experimental: as §1, §2

IgA-Pep05 [5] = target: T27, IgA-Pep05; assay: glycopeptide microarray, antibody at 50 ug/mL; spot IgA-Pep14
Experimental: as §1, §2

Row | Binder | RLU (A-MUC2) [RLU] | RLU (C-MUC2) [RLU] | RLU (E-MUC2) [RLU] | RLU (F-MUC2) [RLU] | RLU (G-MUC2) [RLU] | RLU [1] [RLU] | RLU (MUC5AC) [RLU] | RLU (EA2) [RLU] | RLU (EA2-R) [RLU] | RLU [2] [RLU] | RLU (MUC1-1) [RLU] | RLU (MUC1-1R) [RLU] | RLU (MUC1-2R) [RLU] | RLU (Peptide-4) [RLU] | RLU (Peptide-5) [RLU] | RLU (IgA-Pep02) [RLU] | RLU (IgA-Pep07) [RLU] | RLU (IgA-Pep08) [RLU] | RLU (IgA-Pep10) [RLU] | RLU (IgA-Pep18) [RLU] | further results
1 | B1 | 45 | 9 | 8 | 11 | 10 | 37 | 23 | 11 | 15 | 24 | 11 | 7 | 4 | 7 | 10 | 26 | 20 | 22 | 19 | 16 | RLU (B-MUC2): 19 RLU; RLU (D-MUC2): 12 RLU; RLU (MUC1-2): 33 RLU; RLU (IgA-Pep03): 58 RLU; RLU (IgA-Pep13): 40 RLU; RLU (IgA-Pep16): 115 RLU; RLU (IgA-Pep05 [3]): 28 RLU; RLU (IgA-Pep05 [4]): 20 RLU; RLU (IgA-Pep05 [5]): 43 RLU
2 | B2 | 55 | 22 | 27 | 54 | -39 | -4 | -14 | 18 | 45 | 28 | 14 | 7 | 0 | 31 | -6 | 35 | 30 | -6 | -127 | 22 | RLU (B-MUC2): 23 RLU; RLU (D-MUC2): 12 RLU; RLU (MUC1-2): 59 RLU; RLU (IgA-Pep05 [3]): 60 RLU; RLU (IgA-Pep05 [4]): 83 RLU; RLU (IgA-Pep05 [5]): 38 RLU
3 | B3 | 65 | 30 | 87 | 70 | 51 | 86 | 87 | 16 | 29 | 51 | 61 | 19 | 6 | 33 | 41 | 75 | 144 | 282 | 125 | 174 | RLU (IgA-Pep05 [3]): 149 RLU; RLU (IgA-Pep05 [4]): 457 RLU; RLU (IgA-Pep05 [5]): 112 RLU
